Results from article PMC8141524, “The uncharacterized SANT and BTB domain-containing protein SANBR inhibits class switch recombination” (The Journal of Biological Chemistry, 2021).

Tests used:
[1] = target: the molecule itself; assay: SEC; purified His6-SANBR(BTB) on a Superdex-200 10/30 column, compared with molecular weight standards; SEC buffer 10 mM HEPES pH 8.0, 0.3 M NaCl, 10% glycerol, 1 mM TCEP
GST-tagged mouse HDAC1 = target: T1, GST-tagged mouse HDAC1 (mouse, UniProt O09106 1-482); assay: pull-down; 200 nM His6-tagged BTB domain with equimolar GST-tagged protein, 50 mM HEPES pH 8.0, 150 mM NaCl, 0.1% IGEPAL-CA630, 2 mM EDTA, 4 °C; glutathione sepharose 4B; immunoblot anti-His; conditions: both partners purified
T1 construct: histone deacetylase 1 (HDAC1), mouse; also called GST-HDAC1; source: E. coli BL21DE3(RIPL), purified (glutathione sepharose 4B, SEC)
T1 sequence (O09106 whole entry, the tested form may be a part): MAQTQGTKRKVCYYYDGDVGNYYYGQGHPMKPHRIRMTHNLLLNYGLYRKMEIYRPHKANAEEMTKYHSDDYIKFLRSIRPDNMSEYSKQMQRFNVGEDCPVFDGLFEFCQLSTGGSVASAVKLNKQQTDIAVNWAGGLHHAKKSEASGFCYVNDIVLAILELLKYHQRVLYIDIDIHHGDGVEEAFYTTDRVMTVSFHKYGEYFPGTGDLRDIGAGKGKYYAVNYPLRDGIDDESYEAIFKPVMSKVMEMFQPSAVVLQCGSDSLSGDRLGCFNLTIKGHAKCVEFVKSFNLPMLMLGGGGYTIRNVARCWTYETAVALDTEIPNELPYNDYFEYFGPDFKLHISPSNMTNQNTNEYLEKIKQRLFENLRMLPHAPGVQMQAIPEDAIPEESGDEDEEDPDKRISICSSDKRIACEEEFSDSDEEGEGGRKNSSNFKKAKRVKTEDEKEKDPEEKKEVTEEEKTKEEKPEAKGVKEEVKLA

B1: His6-SANBR(BTB), the predicted BTB domain of SANBR (amino acids 144-261) (domain or fragment, mouse, UniProt Q68FF0-1 144-261, looked up)
chain: GPNMVIHVCDEAKSLKEDFICPRDLLISEMKYFAEYLSMDAQRWEEVDISVHCDVHIFNWLIKYVKRNTKESKDCEIPALEPGNVISILISSEFLKMDSLVEQCIQYCHKNMNAIVAA
notes: SANBR (KIAA1841), mouse, residues 144-261 containing the BTB domain (predicted BTB domain 147-255); full-length protein has 718 amino acids; cDNA cloned from stimulated mouse splenic B cells; predicted size of the tagged fragment 15 kD; also called His6-tagged SANBR(BTB); KIAA1841 BTB domain; source: E. coli BL21DE3(RIPL), purified (HisTrap FF, SEC); not shown: His6, N-terminal, kept
For B1, the “stoichiometry N” value [1] was 2 and the binding result (GST-tagged mouse HDAC1) was “binds”.
